Data as given in paper PMC7374751, “TIMP-3 facilitates binding of target metalloproteinases to the endocytic receptor LRP-1 and promotes scavenging of MMP-1” (Scientific Reports, 2020).

How the values were obtained:
Conditions in all cases: both partners purified
[1] = target: T1, MMP-3 catalytic domain (MMP-3ΔC) (UniProt P08254 100-272); experiment: enzyme activity of pre-formed complexes against synthetic substrates; 10 nM [35S]TIMP-3 incubated with an equimolar concentration of metalloproteinase for 1 h at 37 °C; complex formation and stability over 24 h checked by activity
T1 construct: catalytic domain of MMP-3; pro-domain removed with APMA
T1 sequence (P08254 100-272, stated change not applied): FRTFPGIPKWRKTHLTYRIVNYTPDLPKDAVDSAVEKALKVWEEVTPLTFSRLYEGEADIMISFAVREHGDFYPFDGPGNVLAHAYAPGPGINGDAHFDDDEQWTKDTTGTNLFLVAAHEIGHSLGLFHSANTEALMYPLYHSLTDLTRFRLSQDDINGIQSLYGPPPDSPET

MMP-9 = target: T2, MMP-9 (UniProt P14780 107-707); experiment: as above
T2 construct: MMP-9, active enzyme after removal of the pro-domain with APMA

ectodomain of MMP-14 = target: T3, ectodomain of MMP-14 (UniProt P50281 112-541); experiment: as above
T3 construct: also called MMP-14 ectodomain; MMP-14 catalytic domain

[2] = target: T4, FLAG-tagged ADAMTS-4 lacking the C-terminal spacer domain (ADAMTS4-2) (UniProt O75173 213-685); experiment: as above
T4 construct: ADAMTS-4 lacking the C-terminal spacer domain
T4 sequence (looked up): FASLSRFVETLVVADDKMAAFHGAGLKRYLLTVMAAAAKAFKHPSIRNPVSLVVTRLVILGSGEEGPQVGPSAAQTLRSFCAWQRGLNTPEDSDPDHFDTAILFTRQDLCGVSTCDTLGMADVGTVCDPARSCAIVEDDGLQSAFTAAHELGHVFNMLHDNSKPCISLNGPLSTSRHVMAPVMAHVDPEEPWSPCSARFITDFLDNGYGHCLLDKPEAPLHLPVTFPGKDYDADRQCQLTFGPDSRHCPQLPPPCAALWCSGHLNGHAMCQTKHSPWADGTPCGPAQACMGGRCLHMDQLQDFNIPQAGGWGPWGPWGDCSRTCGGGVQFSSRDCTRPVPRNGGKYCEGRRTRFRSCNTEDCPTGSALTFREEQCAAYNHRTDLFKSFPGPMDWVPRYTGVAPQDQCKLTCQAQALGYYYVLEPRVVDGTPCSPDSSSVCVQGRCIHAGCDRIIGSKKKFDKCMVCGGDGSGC

[3] = target: T5, FLAG-tagged ADAMTS-5 lacking the C-terminal thrombospondin domain (ADAMTS5-2) (UniProt Q9UNA0 262-874); experiment: as above
T5 construct: ADAMTS-5 lacking the C-terminal thrombospondin domain
T5 sequence (looked up): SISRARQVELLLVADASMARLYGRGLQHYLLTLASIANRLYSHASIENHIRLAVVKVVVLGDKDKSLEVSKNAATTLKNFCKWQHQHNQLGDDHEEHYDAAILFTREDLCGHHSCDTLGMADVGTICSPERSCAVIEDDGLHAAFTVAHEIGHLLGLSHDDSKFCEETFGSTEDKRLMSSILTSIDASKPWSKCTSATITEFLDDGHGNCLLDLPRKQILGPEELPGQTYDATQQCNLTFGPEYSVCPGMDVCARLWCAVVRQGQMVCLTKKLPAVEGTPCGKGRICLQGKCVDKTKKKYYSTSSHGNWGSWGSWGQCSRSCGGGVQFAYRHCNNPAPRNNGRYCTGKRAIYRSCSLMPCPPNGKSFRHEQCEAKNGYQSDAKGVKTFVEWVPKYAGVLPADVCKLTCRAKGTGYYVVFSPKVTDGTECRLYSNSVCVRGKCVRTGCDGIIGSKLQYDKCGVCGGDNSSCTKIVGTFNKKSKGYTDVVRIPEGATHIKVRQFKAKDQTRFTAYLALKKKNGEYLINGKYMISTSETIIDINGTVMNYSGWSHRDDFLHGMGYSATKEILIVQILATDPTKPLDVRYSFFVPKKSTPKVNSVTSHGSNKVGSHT

[4] = target: T6, catalytic domain of human MMP-1 (MMP-1ΔC) (human, UniProt P03956 100-269); experiment: as above
T6 construct: catalytic domain of human MMP-1 (lacks the hemopexin domain); pro-domain removed with APMA
T6 sequence (looked up): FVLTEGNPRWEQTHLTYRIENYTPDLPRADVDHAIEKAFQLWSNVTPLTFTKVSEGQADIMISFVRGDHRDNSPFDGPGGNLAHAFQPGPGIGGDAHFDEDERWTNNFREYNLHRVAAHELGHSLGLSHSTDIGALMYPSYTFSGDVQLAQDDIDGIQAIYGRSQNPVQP

[5] = target: T7, low-density lipoprotein receptor-related protein 1 (LRP-1) (UniProt Q07954 20-4544); experiment: SPR; BIAcore T200; LRP-1 immobilised on a CM5 chip by amine coupling (3000 RU); 25 °C; 150 mM NaCl, 10 mM CaCl2, 50 mM Tris-HCl, 0.01% Tween-20, pH 7.5; 30 μl/min; ligands or pre-formed complexes injected; one-site binding model; triplicate
T7 construct: low-density lipoprotein receptor-related protein 1 (LRP-1), bought from Biomac; source: bought: Biomac (Leipzig, Germany)
T7 sequence (Q07954 20-4544): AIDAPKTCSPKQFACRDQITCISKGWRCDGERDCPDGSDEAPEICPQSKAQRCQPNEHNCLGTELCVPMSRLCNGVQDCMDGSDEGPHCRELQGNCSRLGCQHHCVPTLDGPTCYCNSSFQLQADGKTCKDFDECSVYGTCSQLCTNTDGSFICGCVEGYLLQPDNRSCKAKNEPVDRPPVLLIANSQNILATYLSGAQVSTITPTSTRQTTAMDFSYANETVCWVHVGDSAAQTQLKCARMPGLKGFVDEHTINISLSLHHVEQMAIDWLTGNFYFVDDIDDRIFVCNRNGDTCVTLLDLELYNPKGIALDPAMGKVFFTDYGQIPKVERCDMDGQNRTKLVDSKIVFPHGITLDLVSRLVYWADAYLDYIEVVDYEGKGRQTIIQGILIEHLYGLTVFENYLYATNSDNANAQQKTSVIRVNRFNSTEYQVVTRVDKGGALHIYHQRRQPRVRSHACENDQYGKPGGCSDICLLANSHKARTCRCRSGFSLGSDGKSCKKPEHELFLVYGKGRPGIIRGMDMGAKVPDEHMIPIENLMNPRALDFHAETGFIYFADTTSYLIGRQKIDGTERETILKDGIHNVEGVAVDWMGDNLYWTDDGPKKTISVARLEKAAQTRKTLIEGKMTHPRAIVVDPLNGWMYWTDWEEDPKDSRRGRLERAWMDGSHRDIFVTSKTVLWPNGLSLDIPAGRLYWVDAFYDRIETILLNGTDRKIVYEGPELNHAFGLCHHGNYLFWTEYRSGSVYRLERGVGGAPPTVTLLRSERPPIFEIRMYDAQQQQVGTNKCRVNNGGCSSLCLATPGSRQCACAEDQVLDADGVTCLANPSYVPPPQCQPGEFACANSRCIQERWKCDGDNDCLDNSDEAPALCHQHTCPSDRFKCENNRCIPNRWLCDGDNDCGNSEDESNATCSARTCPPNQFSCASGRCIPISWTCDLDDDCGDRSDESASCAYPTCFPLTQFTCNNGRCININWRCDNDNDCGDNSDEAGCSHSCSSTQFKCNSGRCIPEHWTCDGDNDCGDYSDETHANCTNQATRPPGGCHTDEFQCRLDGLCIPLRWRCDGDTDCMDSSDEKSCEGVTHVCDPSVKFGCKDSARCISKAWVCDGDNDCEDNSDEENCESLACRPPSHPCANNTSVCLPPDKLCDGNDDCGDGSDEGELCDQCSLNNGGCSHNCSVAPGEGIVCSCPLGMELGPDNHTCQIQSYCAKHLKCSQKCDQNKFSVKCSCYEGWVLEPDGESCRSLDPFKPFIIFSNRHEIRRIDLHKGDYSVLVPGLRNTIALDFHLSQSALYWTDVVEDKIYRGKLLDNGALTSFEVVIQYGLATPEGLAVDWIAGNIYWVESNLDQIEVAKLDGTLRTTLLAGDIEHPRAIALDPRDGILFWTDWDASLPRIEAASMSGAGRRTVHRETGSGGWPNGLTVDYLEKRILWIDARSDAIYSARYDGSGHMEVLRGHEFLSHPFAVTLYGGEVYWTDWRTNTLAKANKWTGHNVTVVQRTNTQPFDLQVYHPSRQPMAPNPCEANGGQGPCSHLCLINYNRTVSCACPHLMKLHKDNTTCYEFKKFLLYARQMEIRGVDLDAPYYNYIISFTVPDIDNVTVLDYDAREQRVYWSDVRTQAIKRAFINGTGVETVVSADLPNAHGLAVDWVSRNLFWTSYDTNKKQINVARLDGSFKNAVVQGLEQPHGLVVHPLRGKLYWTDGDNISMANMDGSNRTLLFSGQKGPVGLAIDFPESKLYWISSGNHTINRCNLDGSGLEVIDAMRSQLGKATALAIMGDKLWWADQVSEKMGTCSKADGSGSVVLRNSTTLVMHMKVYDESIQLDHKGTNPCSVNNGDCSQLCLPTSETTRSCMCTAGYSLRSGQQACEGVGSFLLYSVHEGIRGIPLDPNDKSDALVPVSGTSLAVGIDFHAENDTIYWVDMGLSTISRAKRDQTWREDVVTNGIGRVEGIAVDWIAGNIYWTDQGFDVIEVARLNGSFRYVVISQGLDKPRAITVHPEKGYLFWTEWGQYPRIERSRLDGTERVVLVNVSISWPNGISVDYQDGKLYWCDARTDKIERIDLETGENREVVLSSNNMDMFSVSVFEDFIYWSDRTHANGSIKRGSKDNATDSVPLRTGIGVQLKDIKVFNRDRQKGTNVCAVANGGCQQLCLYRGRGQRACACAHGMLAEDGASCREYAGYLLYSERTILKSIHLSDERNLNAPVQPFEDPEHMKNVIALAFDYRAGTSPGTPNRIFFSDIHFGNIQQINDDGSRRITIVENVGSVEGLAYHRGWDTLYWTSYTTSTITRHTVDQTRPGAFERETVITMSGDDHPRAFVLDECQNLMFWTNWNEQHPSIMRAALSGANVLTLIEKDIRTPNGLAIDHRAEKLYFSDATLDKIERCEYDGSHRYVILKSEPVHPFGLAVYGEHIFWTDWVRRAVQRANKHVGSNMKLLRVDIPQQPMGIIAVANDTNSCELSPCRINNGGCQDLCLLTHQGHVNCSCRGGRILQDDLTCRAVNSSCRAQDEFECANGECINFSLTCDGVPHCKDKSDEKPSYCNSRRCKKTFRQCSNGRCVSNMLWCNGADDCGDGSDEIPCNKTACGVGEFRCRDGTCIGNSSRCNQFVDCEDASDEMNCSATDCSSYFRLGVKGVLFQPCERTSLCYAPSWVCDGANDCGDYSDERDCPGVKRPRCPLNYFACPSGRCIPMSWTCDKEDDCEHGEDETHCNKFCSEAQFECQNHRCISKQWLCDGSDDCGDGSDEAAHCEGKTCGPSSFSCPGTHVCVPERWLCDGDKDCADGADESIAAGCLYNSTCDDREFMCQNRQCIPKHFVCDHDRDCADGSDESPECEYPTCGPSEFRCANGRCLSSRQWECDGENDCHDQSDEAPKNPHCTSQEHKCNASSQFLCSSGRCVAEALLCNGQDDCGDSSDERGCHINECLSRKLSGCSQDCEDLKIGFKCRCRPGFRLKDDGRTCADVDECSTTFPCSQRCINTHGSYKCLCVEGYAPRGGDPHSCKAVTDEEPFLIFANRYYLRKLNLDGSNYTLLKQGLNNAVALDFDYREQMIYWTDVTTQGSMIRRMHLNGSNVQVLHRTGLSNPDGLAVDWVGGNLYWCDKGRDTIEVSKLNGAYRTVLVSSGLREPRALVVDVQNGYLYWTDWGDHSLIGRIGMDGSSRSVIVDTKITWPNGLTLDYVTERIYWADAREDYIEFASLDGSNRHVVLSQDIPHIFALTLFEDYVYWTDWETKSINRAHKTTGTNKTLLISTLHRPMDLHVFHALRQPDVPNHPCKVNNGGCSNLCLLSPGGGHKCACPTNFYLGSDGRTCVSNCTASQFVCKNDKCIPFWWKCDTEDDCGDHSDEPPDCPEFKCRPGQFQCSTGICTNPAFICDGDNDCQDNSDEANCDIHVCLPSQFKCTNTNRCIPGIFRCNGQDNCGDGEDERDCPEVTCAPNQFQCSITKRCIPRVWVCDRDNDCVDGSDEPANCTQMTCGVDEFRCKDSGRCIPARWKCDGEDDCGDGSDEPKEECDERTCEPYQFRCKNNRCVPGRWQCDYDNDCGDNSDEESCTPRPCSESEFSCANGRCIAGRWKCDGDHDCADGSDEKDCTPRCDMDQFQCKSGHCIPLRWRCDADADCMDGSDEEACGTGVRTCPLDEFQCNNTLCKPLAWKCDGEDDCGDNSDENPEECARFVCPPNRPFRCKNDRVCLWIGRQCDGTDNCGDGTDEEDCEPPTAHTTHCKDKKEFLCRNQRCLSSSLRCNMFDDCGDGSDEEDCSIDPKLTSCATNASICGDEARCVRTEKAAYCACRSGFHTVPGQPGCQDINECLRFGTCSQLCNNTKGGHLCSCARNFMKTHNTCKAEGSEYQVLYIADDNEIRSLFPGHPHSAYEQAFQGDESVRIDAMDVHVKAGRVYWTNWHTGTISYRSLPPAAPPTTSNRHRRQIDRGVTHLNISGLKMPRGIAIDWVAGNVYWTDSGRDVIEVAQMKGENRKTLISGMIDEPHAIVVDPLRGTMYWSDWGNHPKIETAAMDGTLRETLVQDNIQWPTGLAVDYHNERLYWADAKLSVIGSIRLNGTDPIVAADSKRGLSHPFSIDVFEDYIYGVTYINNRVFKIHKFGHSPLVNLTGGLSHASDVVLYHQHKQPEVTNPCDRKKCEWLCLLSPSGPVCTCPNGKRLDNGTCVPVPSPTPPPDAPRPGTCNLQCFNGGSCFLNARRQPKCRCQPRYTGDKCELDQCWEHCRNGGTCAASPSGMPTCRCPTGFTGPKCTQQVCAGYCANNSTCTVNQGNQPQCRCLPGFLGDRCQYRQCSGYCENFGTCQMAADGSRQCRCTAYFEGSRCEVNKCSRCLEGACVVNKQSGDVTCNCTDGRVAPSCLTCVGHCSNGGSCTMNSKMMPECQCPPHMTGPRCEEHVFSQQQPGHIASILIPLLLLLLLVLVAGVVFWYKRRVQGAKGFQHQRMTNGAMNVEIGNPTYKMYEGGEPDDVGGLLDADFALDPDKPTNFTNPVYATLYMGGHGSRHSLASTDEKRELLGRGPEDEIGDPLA

[6] = target: T1, MMP-3 catalytic domain (MMP-3ΔC); experiment: enzyme inhibition kinetics (fluorogenic peptide substrates); apparent Ki; enzyme pre-incubated with TIMP-3 (0.5-100 nM) 1 h at 37 °C, equilibrium rate of substrate hydrolysis; TNC buffer (50 mM Tris-HCl pH 7.5, 150 mM NaCl, 10 mM CaCl2, 0.05% Brij-35, 0.02% NaN3), 37 °C; tight-binding equation
[7] = target: T4, FLAG-tagged ADAMTS-4 lacking the …; experiment: as above

B1: FLAG-tagged TIMP-3 (natural protein, UniProt P35625 24-211, looked up)
chain: CTCSPSHPQDAFCNSDIVIRAKVVGKKLVKEGPFGTLVYTIKQMKMYRGFTKMPHVQYIHTEASESLCGLKLEVNKYQYLLTGRVYDGKMYTGLCNFVERWDQLTLSQRKGLNYRYHLGCNCKIKSCYYLPCFVTSKNECLWTDMLSNFGYPGYQSKHYACIRQKGGYCSWYRGWAPPDKSIINATDP
notes: also called T3; [35S]TIMP-3
stoichiometry N [1]: 1
stoichiometry N (MMP-9): 1
stoichiometry N (ectodomain of MMP-14): 1
stoichiometry N [2]: 1
stoichiometry N [3]: 1
stoichiometry N [4]: 1
Kd [5]: 1.68 nM
koff [5]: 0.00389 s⁻¹
kon [5]: 2.31e+06 M⁻¹ s⁻¹
Ki [6]: 0.55 nM
Ki [7]: 0.124 nM
